Target: Ty1 nanobody, biotinylated on the C-terminus (alpaca)
Experiment: BLI; comparative binding test; biotinylated nanobody on streptavidin (SAX) biosensors at about 0.7 nm, dipped into monomeric RBD at 550 nM; 2xPBS with 0.05% Tween-20; Octet RED

Sequence of Ty1 nanobody, biotinylated on the C-terminus (alpaca) (VHH, as listed by the source): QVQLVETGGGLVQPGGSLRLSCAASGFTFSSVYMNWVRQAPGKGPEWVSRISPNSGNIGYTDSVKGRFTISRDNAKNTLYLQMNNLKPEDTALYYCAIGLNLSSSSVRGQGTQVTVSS

Substance “SARS-CoV-2 spike receptor-binding domain (RBD) (from UniProt P0DTC2 319-541) (domain or fragment)” has a BLI response at 550 nM RBD of 1.5 nm.

— publication PMC7473855
